{"source": "patent US20150322414A1", "about": "(UNITED KINGDOM RESEARCH AND INNOVATION, published 2015)", "key": {"[1]": {"target": "Wild-type human Tie2 ectodomain (residues 1-442) surface expression construct on DT40 cells (human) (UniProt P09619)", "sequence (P09619 514-562 limits assumed, form in doubt)": "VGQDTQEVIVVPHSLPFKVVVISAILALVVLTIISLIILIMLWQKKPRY", "assay": "flow cytometry, ligand titrated on DT40 cells displaying wild-type Tie2 ectodomain; apparent Kd"}, "Angiopoietin-1 [2]": {"target": "T1, Angiopoietin-1 (human, UniProt Q15389 20-498, limits assumed)", "T1 construct": "also called Ang1; His6-tagged Ang1", "T1 sequence (looked up)": "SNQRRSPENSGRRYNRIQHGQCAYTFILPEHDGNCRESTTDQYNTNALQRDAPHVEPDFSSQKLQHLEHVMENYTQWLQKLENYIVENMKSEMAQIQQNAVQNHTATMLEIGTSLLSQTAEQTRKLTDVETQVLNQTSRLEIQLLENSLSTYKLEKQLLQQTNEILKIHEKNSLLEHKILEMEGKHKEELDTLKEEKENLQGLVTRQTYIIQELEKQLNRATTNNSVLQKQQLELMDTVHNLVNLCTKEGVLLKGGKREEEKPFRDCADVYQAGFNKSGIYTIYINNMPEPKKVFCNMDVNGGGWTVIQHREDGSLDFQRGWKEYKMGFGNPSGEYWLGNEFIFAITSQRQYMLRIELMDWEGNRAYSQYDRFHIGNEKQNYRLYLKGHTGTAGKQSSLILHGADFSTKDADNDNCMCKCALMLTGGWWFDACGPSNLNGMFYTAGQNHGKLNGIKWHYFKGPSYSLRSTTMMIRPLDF", "assay": "SPR as named in the filing, panel headed 'Binding of Wt and R3 I161G mutant to Ang1', concentrations not given", "experimental": "(§1) Surface plasmon resonance was performed using a ForteBio Octet instrument (Pall Life Sciences). Fusion proteins were immobilised at 5 μg/ml on sensors and kinetic binding assays perfoinied as detailed by the manufacturer."}, "Angiopoietin-2 [3]": {"target": "T2, Angiopoietin-2 (human, UniProt O15123 19-496, limits assumed)", "T2 construct": "also called Ang2; biotinylated Ang2", "T2 sequence (looked up)": "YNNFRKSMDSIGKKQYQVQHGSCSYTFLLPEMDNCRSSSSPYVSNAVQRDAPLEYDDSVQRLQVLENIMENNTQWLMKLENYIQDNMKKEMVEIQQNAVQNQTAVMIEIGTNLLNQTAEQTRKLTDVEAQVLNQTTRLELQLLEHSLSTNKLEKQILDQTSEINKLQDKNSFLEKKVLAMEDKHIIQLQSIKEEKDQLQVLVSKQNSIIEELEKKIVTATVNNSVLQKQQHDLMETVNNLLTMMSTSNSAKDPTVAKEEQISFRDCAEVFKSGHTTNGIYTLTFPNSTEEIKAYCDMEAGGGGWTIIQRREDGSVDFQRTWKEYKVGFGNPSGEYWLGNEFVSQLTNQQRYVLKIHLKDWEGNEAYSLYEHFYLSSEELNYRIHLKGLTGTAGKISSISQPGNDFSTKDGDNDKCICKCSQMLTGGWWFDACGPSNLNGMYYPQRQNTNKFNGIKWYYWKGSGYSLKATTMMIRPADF", "assay": "SPR as named in the filing, panel headed 'Binding of R3 and R3 I161G binding to Ang2', concentrations not given", "experimental": "as §1"}, "Angiopoietin-2 [4]": {"target": "T2, Angiopoietin-2", "assay": "SPR (ForteBio Octet), ectodomain-Fc immobilised; evolved (R3) ectodomain", "experimental": "as §1"}, "Angiopoietin-1 [5]": {"target": "T1, Angiopoietin-1", "assay": "SPR as named in the filing (ForteBio Octet), ectodomain-Fc immobilised on the sensor, Ang1 in solution, concentrations not given", "experimental": "as §1"}, "Angiopoietin-2 [6]": {"target": "T2, Angiopoietin-2", "assay": "SPR (ForteBio Octet), ectodomain-Fc immobilised; wild-type ectodomain", "experimental": "as §1"}}, "data": [{"molecule": "Angiopoietin-1 (from UniProt Q15389 20-498) (ligand)", "values": [{"measurement": "Kd", "setting": "[1]", "value": 0.7, "unit": "nM"}]}, {"molecule": "R3 I161G mutant Tie2 ectodomain (Glycine at 161, deleted at R167 and H168) (Fc fusion, also called new mutant; improved Ang2 ligand-trap; not shown: the other soluble ectodomains carried a human Fc tag and His6) AMDLILINSLPLVSDAETSLTCIASGWRPHEPITIGRDFEALMNQHQDPLEVTQDVTREWAKKVVWKREKASKINGAYFCEGRVRGEAIRIRTMKMRQQASFLPATLTMTVDKGDNVNISFKKVLIKEEDAVIYKNGSGIHSVPEVPDILEVHLPHAQPQDAGVYSARYIGGNLFTSAFTRLIVRRCEAQKWGPECNHLCTACMNNGVCHEDTGECICPPGFMGRTCEKACELHTFGRTCKERCSGQEGCKSYVFCLPDPYGCSCATGWKGLQCNEACHPGFYGPDCKLRCSCNNGEMCDRFQGCLCSPGWQGLQCEREGIQRMTPKIVDLPDHIEVNSGKFNPICKASGWPLPTNEEMTLVKPDGTVLHPKDFNHTDHFSVAIFTIHRILPPDSGVWVCSVNTVAGMVEKPFNISVK", "values": [{"measurement": "binding result", "setting": "Angiopoietin-1 [2]", "value": "no binding"}, {"measurement": "binding result", "setting": "Angiopoietin-2 [3]", "value": "binds"}]}, {"molecule": "Evolved (R3) Tie2 ectodomain-Fc fusion protein (F161I, ΔR167, ΔH168) (Fc fusion, also called R3 ectodomain; evolved ectodomain; not shown: human Fc tag) chain (part 1 of 2): AMDLILINSLPLVSDAETSLTCIASGWRPHEPITIGRDFEALMNQHQDPLEVTQDVTREWAKKVVWKREKASKINGAYFCEGRVRGEAIRIRTMKMRQQASFLPATLTMTVDKGDNVNISFKKVLIKEEDAVIYKNGSIIHSVPEVPDILEVHLPHAQPQDAGVYSARYIGGNLFTSAFTRLIVRRCEAQKWGPECNHLCTACMNNGVCHEDTGECICPPGFMGRTCEKACELHTFGRTCKERCSGQEGCKSYVFCLPDPYGCSCATGWKGLQCNEACHPGFYGPDCKLRCSCNNGEMCDRFQGCLCSPGWQGLQCEREGIQRMTPKIVDLPDHIEVNSGKFNPICKASGWPLPTNEEMTLVKPDGTVLHPKDFNHTDHFSVAIFTIHRILPPDSGVWVCSVNTVAGMVEKPFNISVK chain (part 2 of 2): HHHHHH", "values": [{"measurement": "Kd", "setting": "Angiopoietin-2 [4]", "value": 2.4, "unit": "nM"}, {"measurement": "binding result", "setting": "Angiopoietin-1 [5]", "value": "no binding"}]}, {"molecule": "Wild-type Tie2 ectodomain (1-442)-Fc fusion protein (Fc fusion, Secreted from HEK293 cells, about 80 kDa, purified on Ni-NTA; also called wild-type ectodomain; Wt; not shown: human Fc tag) chain (part 1 of 2): AMDLILINSLPLVSDAETSLTCIASGWRPHEPITIGRDFEALMNQHQDPLEVTQDVTREWAKKVVWKREKASKINGAYFCEGRVRGEAIRIRTMKMRQQASFLPATLTMTVDKGDNVNISFKKVLIKEEDAVIYKNGSFIHSVPRHEVPDILEVHLPHAQPQDAGVYSARYIGGNLFTSAFTRLIVRRCEAQKWGPECNHLCTACMNNGVCHEDTGECICPPGFMGRTCEKACELHTFGRTCKERCSGQEGCKSYVFCLPDPYGCSCATGWKGLQCNEACHPGFYGPDCKLRCSCNNGEMCDRFQGCLCSPGWQGLQCEREGIQRMTPKIVDLPDHIEVNSGKFNPICKASGWPLPTNEEMTLVKPDGTVLHPKDFNHTDHFSVAIFTIHRILPPDSGVWVCSVNTVAGMVEKPFNISVK chain (part 2 of 2): HHHHHH", "values": [{"measurement": "Kd", "setting": "Angiopoietin-2 [6]", "value": 4.1, "unit": "nM"}]}]}
